Ends that are not written are not given here. dimethyl = dimethyl-lysine
Target: T1, 53BP1 tandem Tudor domain (residues 1459-1634) (human, UniProt Q12888 1459-1634)
T1 chain: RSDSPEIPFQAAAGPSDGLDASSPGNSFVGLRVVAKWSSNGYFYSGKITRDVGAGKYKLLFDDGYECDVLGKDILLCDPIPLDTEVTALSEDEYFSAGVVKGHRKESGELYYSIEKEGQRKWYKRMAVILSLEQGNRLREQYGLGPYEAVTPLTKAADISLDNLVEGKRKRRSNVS
Experiment: ITC

Kd: 19.8 µM
Binder: KGGAKRHRK(dimethyl)VLRDN [H4K20me2 peptide (residues 12-25)]
